# Data reported in US6420524.
# How the values were obtained:
# Assay in all cases: cell_activity
# [1] = test system: TnsA+TnsB+TnsC A225V TnsC A225V (Escherichia coli (Tn7)?)
# [2] = test system: TnsA+TnsB+TnsC S401YΔ402 TnsC S401Y, Δ402 (Escherichia coli (Tn7)?); settings: lambda hop; inhibited somewhat by TnsD
# [3] = molecular target: TnsA+TnsB+TnsC+TnsD (Escherichia coli (Tn7)?) (UniProt P13988+P13989+P05846+A0A0H2XLP6); settings: lambda hop
# [4] = test system: TnsA+TnsB+TnsC+TnsE (Escherichia coli (Tn7)?); settings: lambda hop
# [5] = molecular target: TnsA+TnsB+TnsC (wild type) (Escherichia coli (Tn7)?) (UniProt P13988+P13989+P05846); settings: mating-out assay
# [6] = test system: TnsA+TnsB+TnsC+TnsD+TnsE (Escherichia coli (Tn7)?); settings: mating-out assay; +/- 1.1e-4
substance,measurement,setting,value
E. coli chromosome target (miniTn7-KmR from lambda KK1),relative transposition activity (fold vs TnsABCwt+E),"[1]; lambda hop, stimulated 500-fold by TnsD+attTn7",8
same,relative transposition activity (fold vs TnsABCwt+E),[2],50
same,activity (KmR colonies/pfu),[3],0.00018
same,activity (KmR colonies/pfu),[4],2.2e-07
pOX-G conjugable target plasmid,activity (transposition frequency),[5],< 1e-07
same,activity (transposition frequency),"[1]; mating-out assay, +/- 8.1e-6",8.8e-06
same,activity (transposition frequency),[6],0.00055
